The values below come from patent US20190241648A1 (STATEN BIOTECHNOLOGY B V, published 2019).

Test [1] deals with T1, human ApoC3 (huApoC3), native protein purified from human serum (human, UniProt P02656 21-99). As to the kind of experiment: cell-based or functional assay.
For test [2], the target named is T1, human ApoC3 (huApoC3), native protein …. Kind of test: SPR Biacore, huApoC3 on chip, scFv-Fc as analyte. How it is done:
This example describes characterization of anti-ApoC3 antibodies regarding their affinity to ApoC3 under neutral conditions using an SPR-based assay using a Biacore 3000 instrument (Biacore AB). Native huApoC3 protein was immobilized on a CM5 chip. The immobilization was performed in accordance with the method provided by Biacore using the NHS/EDC kit (Biacore AB): after activation of the chip, a solution of 60 μg/ml of human ApoC3 in 10 mM acetate buffer with pH of 4.5 was prepared and injected until the surface density reached approximately 1000 RU. Capturing of the human ApoC3 on the streptavidin coated chip (SA) was performed at pH 7.4 in accordance with a method provided by Biacore via injection of 20 μl 10 μg/ml biotinylated human ApoC3 thereby reaching the surface density of approximately 500 RU. […] After the dissociation, the flow cell surfaces were regenerated by injecting 10 μl of 10 mM […]/1 M NaCl and 10 μl of 10 mM glycine at pH1.5. The resulting sensorgrams were analyzed using the BIAevaluation 4.1 software using Langmuir 1:1 binding model to derive binding kinetics. Data was zero adjusted and the reference cell sensorgrams were subtracted.
A number of scFv-Fc antibodies were examined in this assay. The association rate (ka), dissociation rate (kd), analyte binding capacity (Rmax), equilibrium association constant (KA) and equilibrium dissociation constant (KD) of these antibodies are shown in Table 5.

Test [3] deals with cynomologus monkey ApoC3 (cynoApoC3), native protein (Macaca fascicularis (cynomologus monkey), UniProt P18659 21-99). As to the kind of experiment: SPR (Biacore 3000), antibody IgG1 amine-coupled to a CM5 chip, native ApoC3 injected, HBS-EP pH 7.4. How it is done: The SPR experiments were carried out using a Biacore 3000 instrument (GE Healthcare). Flow cells of CM5 sensor chips were coupled with the generated IgG formatted antibodies of 14C7, 5A7, 5E5 and 6A6 (˜2000 RU) using the amine coupling chemistry. The coupling was performed using the adaptive immobilization Biacore protocol aiming 2000 RU as coating density, using 10 μg/ml antibody solutions in 10 mM sodium acetate buffer at pH 5.0. For all experiments the HBS-EP buffer at pH 7.4 was used as running and dilution buffer. 60 μl of human native ApoC3 or cynomologus monkey native ApoC3 protein preparations in the concentration range of 10 to 200 μg/ml were injected over all flow channels, followed by an off-rate wash at pH7.4 for 5 min. All injections were performed at a constant flow rate of 30 μl/min at 25° C. After the dissociation, the flow cell surfaces were regenerated by injecting 10 μl of 10 mM NaOH/1 M NaCl and 10 μl of 10 mM glycine at pH1.5. The resulting sensorgrams after blank channel subtraction were used to confirm cross-species reactivity and to evaluate affinity.
Background: Surface plasmon resonance follows binding to a sensor surface in real time, without labels.

A value given as a limit tells only on which side of the number the result lay.

T1 sequence (P02656 21-99): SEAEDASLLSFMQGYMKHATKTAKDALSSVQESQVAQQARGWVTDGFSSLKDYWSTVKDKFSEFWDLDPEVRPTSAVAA
cynomologus monkey ApoC3 (cynoApoC3), native protein, sequence (P18659 21-99 limits assumed): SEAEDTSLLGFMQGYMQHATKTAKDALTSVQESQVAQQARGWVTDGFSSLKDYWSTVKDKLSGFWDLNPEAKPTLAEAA

B1: 8A4 scFv-Fc (Fc fusion)
VH: QVQLVESGGGLVQPGGSLKVSCTASGFTFNNYAMRWVRQAEGKGLEWVSSIDSGGDRTKYGDSVKGRFSISRDNAKNTVYLQMDALKPEDTGVYYCVSQGYIFWGQGAQVTVSS
VL: ATMLTQSPGSLSVVPGESASISCKASQSLVHSDGKTYLYWLLQKPGQRPQLLIYQVSNHESGVPDRFTGSGSGTDYTLKISGVKAEDAGVYYCAQATYYPLTFGQGTKVELK
notes: scFv-Fc format
What is called Kd is a measure of binding affinity in units of concentration. As usually defined, the koff is a measure of how fast the partners let go of each other. As a reminder, the kon is a measure of how fast the partners come together. B1: the “attenuation of the ability of ApoC3 to inhibit VLDL uptake by HepG2 cells” value in test [1] is roughly 40%. Besides, in test [2], the Ka was found to be 4.27e+09 M⁻¹, the dissociation constant Kd amounted to 0.234 nM, the off-rate constant (koff) was 7.02e-05 s⁻¹ and the kon worked out at 300000 M⁻¹ s⁻¹.

B2: 8F4 scFv-Fc (Fc fusion)
VH: QLQLVESGGGLVQPGGSLRLSCAASGFAFSSYSMYWVRQAPGKGLERVAAIKTDGGSTNYADSVKGRFTVSRDNAKNTLYLQMNSLKSEDTAVYYCVIQGYGTWGQGTQVTVSS
VL: DLVLTQIPGSLSVVPGESASISCKASQSLVHSDGKTYLYWLLQKPGQSPQRLIYQVSNRGSGVPDRFTGSGSGTDFTLKISGVEAEDAGVYYCAQATYYGHSFGSGTRLEIK
notes: scFv-Fc format
With B2, the “attenuation of the ability of ApoC3 to inhibit VLDL uptake by HepG2 cells” value in test [1] was roughly 75%. For the same molecule, in test [2], the Ka was determined as 1.72e+09 M⁻¹, the Kd stood at 0.581 nM, the off-rate constant (koff) amounted to 9.44e-05 s⁻¹ and the kon was 163000 M⁻¹ s⁻¹.

B3: 8H4 scFv-Fc (Fc fusion)
VH: ELQLVESGGGLVQPGRSLRLSCAASGFTFSSYSMRWVRQTPGKGLEWVTSINSDGGSTKYSDSVKGRFTISRDNAKNTLYLQMNNVKPEDTAIYYCAIQGYTDWGQGTQVTVSS
VL: DVVLTQTPGSLSVVPGESASISCKVSQSLVHSDGKTYLYWLLQKPGQSPQRLIYQVSNRDSGVPDRFTGSGSGTDFTLKISGVKAEDAGVYYCAQGTYNPYTFGSGTRLEIK
notes: scFv-Fc format
For B3, in test [1], the “attenuation of the ability of ApoC3 to inhibit VLDL uptake by HepG2 cells” value is roughly 70%. In test [2], this molecule came in with a Ka of 2.52e+09 M⁻¹, a dissociation constant (Kd) of 0.397 nM, an off-rate constant (koff) of 7.44e-05 s⁻¹ and an association rate constant (kon) of 187000 M⁻¹ s⁻¹.

B4: 5A4 scFv-Fc (Fc fusion)
VH: QLQLVESGGGLVQPGGSLRLSCVASGFAFSHYTMYWVRQAPVRGLERVSAISGGGDRTIYTDSVKGRFTISRDNAANALYLQMNSLQPEDTAVYYCVAQGYEYWGQGTRVTVSS
VL: ATMLTQSPGSLSVVPGESASISCKAIQSLVHTDGKTYLYWFLQKPGQSPQRLIYQVSNRGSGVPDRFTGSGSGTDFTLKISGVKAEDAGVYYCAQGTYSSKTFGQGTKLEIK
notes: scFv-Fc format
Regarding B4, in test [1], the “attenuation of the ability of ApoC3 to inhibit VLDL uptake by HepG2 cells” value is roughly 100%. In test [2], this molecule registered a Ka of 3.02e+09 M⁻¹, a Kd of 0.331 nM, a koff of 0.000351 s⁻¹ and a kon of 1.06e+06 M⁻¹ s⁻¹.

B5: 5A11 scFv-Fc (Fc fusion)
VH: QVQVQESGPGLVKPSQTLSLTCTVSGVSITTRYYAWSWIRQPPGKGLEWMGVIAYDGSTYYSPSLKSRTSISRDTSKNQFSLQLTSVTPEDTAVYYCARVRLIEAPYEYDYWGQGTQVTVSS
VL: QAVVTQEPSLSVSPGGTVTLTCGLSSGSVTTRSYPGWFQQTPGQAPRSLIHSTSSRHSGIPTRFSGSISGNKAALTITGAQPEDEADYYCALDIGSYIVFGGGTHLTVL
notes: scFv-Fc format
As to B5, the “attenuation of the ability of ApoC3 to inhibit VLDL uptake by HepG2 cells” value in test [1] was roughly 55%. In test [2], this molecule came in with a Ka of 2.15e+09 M⁻¹, a Kd of 0.465 nM, a koff of 0.000668 s⁻¹ and a kon of 1.44e+06 M⁻¹ s⁻¹.

B6: 5A7 IgG1 (antibody, V domains shown)
VH: EVQVQESGPGLVKPSQTLSLTCTVSGASITNRRYAWTWIRQPPGKGLEWMGVIVYDGNTHVSPSLRSRTSISRDTSKNQFSLQLSSLTPEDTAVYYCARVLLLRDPLSLDYWGQGTQVTVSS
VL: SSALTQPPSMSGTLGKTLTISCAGTSSDIGAYNFVSWYQQLPGTAPKLLIYDIDKRASGIPDRFSGSKSGNTASLSISGLQSEDEADYYCAAYGSRDNVVFGGGTHLTVL
notes: IgG1 format
On to B6, for which, in test [3], the binding result is recorded as “binds”.

B7: 5E5 IgG1 (antibody, V domains shown)
VH: QLQLVESGGGLVQPGGSLRLSCAASGFTFGTYSMRWVRQVPRKALEWVSSISTDGGGTAYRDSVKGRFTISRDNAKNTLYLQMNNLKPEDTAIYYCVIAGYSDWGQGTQVTVSS
VL: ATMLTQSPGSLSVVPGESASISCKTSQGLVHSDGKTYFYWFLQKPGQSPQQLIYQVSNRASGVPDRFTGSGSGTDFTLKISGVKAEDAGVYYCAQGTYYPHTFGSGTRLEIK
As for B7, the “EC50, attenuation of ApoC3-mediated LPL inhibition (NEFA production)” value in test [1] is greater than 5000 nM.

B8: 5E5 scFv-Fc (Fc fusion)
VH: QLQLVESGGGLVQPGGSLRLSCAASGFTFGTYSMRWVRQVPRKALEWVSSISTDGGGTAYRDSVKGRFTISRDNAKNTLYLQMNNLKPEDTAIYYCVIAGYSDWGQGTQVTVSS
VL: ATMLTQSPGSLSVVPGESASISCKTSQGLVHSDGKTYFYWFLQKPGQSPQQLIYQVSNRASGVPDRFTGSGSGTDFTLKISGVKAEDAGVYYCAQGTYYPHTFGSGTRLEIK
notes: scFv-Fc format
For B8, the “attenuation of the ability of ApoC3 to inhibit VLDL uptake by HepG2 cells” value in test [1] was roughly 100%. In test [2], this molecule displayed a Ka of 5.94e+08 M⁻¹, a Kd of 1.68 nM, a dissociation rate constant (koff) of 0.000437 s⁻¹ and a kon of 260000 M⁻¹ s⁻¹.

B9: 10B6 scFv-Fc (Fc fusion)
VH: EVQLVESGGGLVQPGGSLRLSCAASGFTFSSYAMRWVRQAPGKGLEWISSINIDGGSTRYTDSVQGRFTVSRDNAKNTLYLQMNNLKPEDTGIYYCTIQGYIYWGQGTQVTVSS
VL: ATMLTQSPGSLSIVPGESASISCKASQSLVHSNGVIYFYWLLQKPGQSPQRLIYQVSNRDSGVPDRFTGSGSGTDFTLKISGVKAEDAGVYYCAQGTYYPHSFGSGTRLQIK
notes: scFv-Fc format
Regarding B9, in test [1], the “attenuation of the ability of ApoC3 to inhibit VLDL uptake by HepG2 cells” value is roughly 70%. In test [2], this molecule registered a Ka of 2.58e+09 M⁻¹, a dissociation constant (Kd) of 0.388 nM, a koff of 6.64e-05 s⁻¹ and a kon of 171000 M⁻¹ s⁻¹.

B10: 6A6 IgG1 (antibody, V domains shown)
VH: EVQLVESGGGLVQPGGSLRLSCAASGFTFSSYAGRWVRQVPGKGLEWVSSINAGGGSTSYADSVKGRFTISRDNAKNTLYLQMNSLKPEDTAKYYCTQNSYRYWGQGTRVAVSS
VL: DVVLTQTPGSLSVVPGESASISCKASQSLIHTDGKTYLYWLLQKPGQRPQLLIYQVSSHESGVPDRFTGSGSGTDFTLKISGVKAEDAGVYYCAQATYNPRTFGQGTKLEIK
notes: IgG1 format
Turning to B10, the “EC50, attenuation of ApoC3-mediated LPL inhibition (NEFA production)” value in test [1] is greater than 5000 nM. For the same molecule, the binding result in test [3] is “binds”.

B11: 6A6 scFv-Fc (Fc fusion)
VH: EVQLVESGGGLVQPGGSLRLSCAASGFTFSSYAGRWVRQVPGKGLEWVSSINAGGGSTSYADSVKGRFTISRDNAKNTLYLQMNSLKPEDTAKYYCTQNSYRYWGQGTRVAVSS
VL: DVVLTQTPGSLSVVPGESASISCKASQSLIHTDGKTYLYWLLQKPGQRPQLLIYQVSSHESGVPDRFTGSGSGTDFTLKISGVKAEDAGVYYCAQATYNPRTFGQGTKLEIK
notes: scFv-Fc format
Regarding B11, in test [1], the “attenuation of the ability of ApoC3 to inhibit VLDL uptake by HepG2 cells” value was roughly 75%. Further, in test [2], the Ka came to 6.41e+09 M⁻¹; the affinity, expressed as Kd, was 0.156 nM; the koff amounted to 0.000186 s⁻¹; the on-rate constant (kon) worked out at 1.19e+06 M⁻¹ s⁻¹.
